In general, Kd refers to the equilibrium constant for the complex coming apart. Higher therefore signals a looser complex.

Ends that are not written are not given here.

The values below come from PMC6611172 (ACS chemical biology, 2018).

Assay [1] has as its target GAS41 YEATS domain (residues 13–158), His6-tagged, 15N-labeled (human) (UniProt O95619). Briefly: NMR titration.
Assay [2] concerns the target full-length GAS41, Avi-tagged, mono-biotinylated (human) (UniProt O95619). Briefly: BLI. In general terms: In BLI a coated tip is dipped into the sample, and binding shifts an interference pattern.
The target of assay [3] is GST-tagged GAS41 YEATS (residues 1–148) (human) (UniProt O95619). Briefly: ITC. Background: In ITC the heat of successive injections is recorded.
Chain of GST-tagged GAS41 YEATS (residues 1–148) (human) (O95619 1-148): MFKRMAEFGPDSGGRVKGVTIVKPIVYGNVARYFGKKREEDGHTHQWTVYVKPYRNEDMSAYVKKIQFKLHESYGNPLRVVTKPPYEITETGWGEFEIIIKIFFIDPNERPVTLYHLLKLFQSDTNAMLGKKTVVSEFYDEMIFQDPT
The target in assay [4] is GST-tagged GAS41 YEATS (residues 1–148) (human, UniProt O95619 1-148). Kind of assay: ITC.
Chain of GST-tagged GAS41 YEATS (residues 1–148) (O95619 1-148): as above
In assay [5] the target is full-length GAS41, Avi-tagged, mono-biotinylated (human, UniProt O95619 1-227, biotin (mono-biotinylated on the Avi tag by BirA)). Kind of assay: BLI.
Chain of full-length GAS41, Avi-tagged, mono-biotinylated (O95619 whole entry): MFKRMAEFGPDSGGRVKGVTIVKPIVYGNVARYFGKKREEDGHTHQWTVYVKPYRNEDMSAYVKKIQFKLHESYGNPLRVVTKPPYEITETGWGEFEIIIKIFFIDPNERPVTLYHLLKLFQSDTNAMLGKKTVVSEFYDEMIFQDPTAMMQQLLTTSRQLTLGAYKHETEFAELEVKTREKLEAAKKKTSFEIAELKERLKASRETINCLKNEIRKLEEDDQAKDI

Chain of full-length GAS41, Avi-tagged, mono-biotinylated (human) (O95619 whole entry, the tested form may be a part): as the sequence (O95619 whole entry) above
Chain of GAS41 YEATS domain (residues 13–158), His6-tagged, 15N-labeled (human) (O95619 13-158): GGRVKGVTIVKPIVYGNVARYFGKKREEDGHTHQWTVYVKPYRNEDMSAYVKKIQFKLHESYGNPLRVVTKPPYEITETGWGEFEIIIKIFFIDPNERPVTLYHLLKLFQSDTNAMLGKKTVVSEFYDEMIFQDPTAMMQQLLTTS

In assay [1], H3K14ac peptide returned a Kd of 720 µM.

On to H3K18ac peptide, for which the Kd amounted to 36 µM in assay [2] and 106 µM in assay [1].

For the molecule tripeptide AKacA, in assay [1], the Kd came out at 1000 µM.

Turning to “H3 peptide with succinylated K27 (H3K27su)”, the Kd in assay [1] is > 1000 µM.

Turning to H3K18acK27ac peptide, the results for the Kd in assay [3] and in assay [2] were 12.5 µM and 3.2 µM, respectively. For the same molecule, the stoichiometry N (peptide : YEATS domain) in assay [3] amounted to 0.5.

Regarding H3K27ac peptide, the Kd in assay [3] was 39 µM; in assay [2], 81 µM; in assay [1], 58 µM. Moreover, the stoichiometry N (peptide : YEATS domain) in assay [3] amounted to 1.

In assay [3], H3K23crK27cr peptide yielded a Kd of 11.1 µM and a stoichiometry N (peptide : YEATS domain) of 0.5.

On to H3K27cr peptide, for which the Kd in assay [3] came to 23.4 µM; in assay [1], 34 µM.

As for ATK(Ac)AARK(Ac)SAP [H3K23acK27ac peptide], the Kd came out at 13.6 µM in assay [4] and 5 µM in assay [5].
